{
  "source": "patent US20220010284A1",
  "about": "(TRUSTEES OF PRINCETON UNIVERSITY, published 2022)",
  "molecules": {"B1": {"name": "Qtip (Gp55 of phage VP882, quorum triggered inactivator of cI protein) (other)", "chain": "MCDFCSEHIDSLDALQSSLEKGTAIIELLDTALSAGIEVSPRVVSCALSAAHQHLQVSEKINRSLQIGCGSKEVLRLVD", "notes": "also called phage VP882 Qtip; pTetA-qtip"}, "B2": {"name": "ORF584 (Qtip-like protein of phage MJ1) (other)", "chain": "MDLRVSNAKDLLDKFEEKAVQMESISQLLANAPEDLTLATVQGSLSALASIARDAGEAADRLRTISSAEG", "notes": "also called phage MJ1 orf584; pTetA-orf584"}},
  "key": {"[1]": {"test_system": "Gp59 (cI repressor, phage VP882) (Vibrio phage VP882)", "experiment": "cell_activity", "conditions": "Pq-lux in E. coli, arabinose induced; direct binding inferred"}, "[2]": {"molecular_target": "T1, lambda HALO-cI (HIS-HALO-cIlambda) (phage lambda, UniProt P03034 2-237)", "T1 construct": "also called lambda cI; lambda repressor; not shown: N-terminal HIS-HALO tag and linker from vector pH6HTN", "T1 sequence": "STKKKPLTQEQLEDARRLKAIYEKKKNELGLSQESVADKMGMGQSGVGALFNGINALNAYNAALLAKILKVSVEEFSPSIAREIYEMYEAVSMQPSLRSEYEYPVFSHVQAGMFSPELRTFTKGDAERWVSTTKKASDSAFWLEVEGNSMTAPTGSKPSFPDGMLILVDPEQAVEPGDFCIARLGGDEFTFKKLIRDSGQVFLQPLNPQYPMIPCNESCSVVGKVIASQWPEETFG", "experiment": "confocal microscopy of HALO-cI localization in E. coli co-expressing Qtip"}, "[3]": {"molecular_target": "T1, lambda HALO-cI (HIS-HALO-cIlambda)", "experiment": "confocal microscopy of HALO-cI localization in E. coli with induced orf584"}},
  "data": [
    {"molecule": "Pq (q/gp62 promoter)", "values": [
      {"measurement": "activity (fold repression)", "setting": "[1]", "result": 140}
    ]},
    {"molecule": "B1", "values": [
      {"measurement": "binding result", "setting": "[2]", "result": "no binding"}
    ]},
    {"molecule": "B2", "values": [
      {"measurement": "binding result", "setting": "[3]", "result": "no binding"}
    ]}
  ]
}
